This assay deals with GFP-LL5β (-ADA) (UniProt Q86SQ0). Description: co-IP.

The record followed here is paper doi:10.1101/2021.09.02.458712.

Sequence of UniProt Q86SQ0 (Q86SQ0 whole entry): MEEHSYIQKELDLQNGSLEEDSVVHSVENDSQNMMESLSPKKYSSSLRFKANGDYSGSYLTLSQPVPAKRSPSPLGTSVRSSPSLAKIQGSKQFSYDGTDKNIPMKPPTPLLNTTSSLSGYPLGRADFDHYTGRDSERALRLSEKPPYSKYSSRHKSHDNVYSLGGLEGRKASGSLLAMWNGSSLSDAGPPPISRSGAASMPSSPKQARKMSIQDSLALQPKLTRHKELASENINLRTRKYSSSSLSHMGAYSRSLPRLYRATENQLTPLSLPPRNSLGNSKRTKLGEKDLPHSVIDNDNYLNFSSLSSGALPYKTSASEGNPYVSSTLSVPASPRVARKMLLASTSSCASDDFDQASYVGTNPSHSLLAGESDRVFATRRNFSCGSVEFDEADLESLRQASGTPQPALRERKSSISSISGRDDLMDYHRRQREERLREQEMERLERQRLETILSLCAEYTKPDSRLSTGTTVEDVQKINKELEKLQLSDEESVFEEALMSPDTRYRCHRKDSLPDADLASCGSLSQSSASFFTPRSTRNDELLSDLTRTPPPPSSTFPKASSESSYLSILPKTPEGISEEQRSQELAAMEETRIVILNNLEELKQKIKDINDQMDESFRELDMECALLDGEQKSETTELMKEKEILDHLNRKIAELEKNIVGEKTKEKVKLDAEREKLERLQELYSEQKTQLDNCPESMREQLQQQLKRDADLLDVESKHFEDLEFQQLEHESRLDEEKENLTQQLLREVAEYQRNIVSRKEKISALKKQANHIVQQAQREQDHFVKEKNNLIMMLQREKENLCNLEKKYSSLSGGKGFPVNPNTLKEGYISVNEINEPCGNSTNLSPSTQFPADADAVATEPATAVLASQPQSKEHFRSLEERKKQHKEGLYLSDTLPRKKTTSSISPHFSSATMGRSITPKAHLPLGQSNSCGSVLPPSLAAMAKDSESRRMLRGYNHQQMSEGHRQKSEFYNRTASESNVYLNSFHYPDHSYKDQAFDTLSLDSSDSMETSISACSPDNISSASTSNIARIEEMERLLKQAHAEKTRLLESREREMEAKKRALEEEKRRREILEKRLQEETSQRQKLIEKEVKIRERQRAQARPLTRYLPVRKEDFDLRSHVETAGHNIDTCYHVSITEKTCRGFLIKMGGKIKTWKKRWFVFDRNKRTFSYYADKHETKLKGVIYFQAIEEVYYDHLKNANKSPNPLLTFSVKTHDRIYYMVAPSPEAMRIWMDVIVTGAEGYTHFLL

B1: endogenous CLASP2 (natural protein)
chain: MAMGDDKSFDDEESVDGNRPSSAASAFKVPAPKTSGNPANSARKPGSAGGPKVGGASKEGGAGAVDEDDFIKAFTDVPSIQIYSSRELEETLNKIREILSDDKHDWDQRANALKKIRSLLVAGAAQYDCFFQHLRLLDGALKLSAKDLRSQVVREACITVAHLSTVLGNKFDHGAEAIVPTLFNLVPNSAKVMATSGCAAIRFIIRHTHVPRLIPLITSNCTSKSVPVRRRSFEFLDLLLQEWQTHSLERHAAVLVETIKKGIHDADAEARVEARKTYMGLRNHFPGEAETLYNSLEPSYQKSLQTYLKSSGSVASLPQSDRSSSSSQESLNRPFSSKWSTANPSTVAGRVSAGSSKASSLPGSLQRSRSDIDVNAAAGAKAHHAAGQSVRSGRLGAGALNAGSYASLEDTSDKLDGTASEDGRVRAKLSAPLAGMGNAKADSRGRSRTKMVSQSQPGSRSGSPGRVLTTTALSTVSSGVQRVLVNSASAQKRSKIPRSQGCSREASPSRLSVARSSRIPRPSVSQGCSREASRESSRDTSPVRSFQPLASRHHSRSTGALYAPEVYGASGPGYGISQSSRLSSSVSAMRVLNTGSDVEEAVADALKKPARRRYESYGMHSDDDANSDASSACSERSYSSRNGSIPTYMRQTEDVAEVLNRCASSNWSERKEGLLGLQNLLKNQRTLSRVELKRLCEIFTRMFADPHGKRVFSMFLETLVDFIQVHKDDLQDWLFVLLTQLLKKMGADLLGSVQAKVQKALDVTRESFPNDLQFNILMRFTVDQTQTPSLKVKVAILKYIETLAKQMDPGDFINSSETRLAVSRVITWTTEPKSSDVRKAAQSVLISLFELNTPEFTMLLGALPKTFQDGATKLLHNHLRNTGNGTQSSMGSPLTRPTPRSPANWSSPLTSPTNTSQNTLSPSAFDYDTENMNSEDIYSSLRGVTEAIQNFSFRSQEDMNEPLKRDSKKDDGDSMCGGPGMSDPRAGGDATDSSQTALDNKASLLHSMPTHSSPRSRDYNPYNYSDSISPFNKSALKEAMFDDDADQFPDDLSLDHSDLVAELLKELSNHNERVEERKIALYELMKLTQEESFSVWDEHFKTILLLLLETLGDKEPTIRALALKVLREILRHQPARFKNYAELTVMKTLEAHKDPHKEVVRSAEEAASVLATSISPEQCIKVLCPIIQTADYPINLAAIKMQTKVIERVSKETLNLLLPEIMPGLIQGYDNSESSVRKACVFCLVAVHAVIGDELKPHLSQLTGSKMKLLNLYIKRAQTGSGGADPTTDVSGQS
With B1, the fold decrease of association against GFP-LL5β is 2 fold.
